Source: CN112390885A (KAIHUI SCIENCE & TECH DEVELOPMENT SHANGHAI CO LTD, dated 2021)
Residue numbers refer to the chain shown, from its start. One block for each binder: values may come before it.

Assays:
[1] = target: 人源TROP2, full length, on transfected cells (CHOK1-hTROP2 2B2; 293F-TROP2 6F6) (human) (UniProt P09758); test: FACS on CHOK1-TROP2 cells
[2] = target: T1, 人源TROP2, full length, on transfected cells (CHOK1-hTROP2 2B2; 293F-TROP2 6F6) (human, UniProt P09758 27-323); test: FACS on CHOK1-TROP2 cells (reference antibody)
T1 construct: Full-length human TROP2 expressed from pIRES in CHOK1 or HEK293 cells; the host cell is named under assay; also called CHOk1-TROP2; CHOK-TROP2
T1 sequence: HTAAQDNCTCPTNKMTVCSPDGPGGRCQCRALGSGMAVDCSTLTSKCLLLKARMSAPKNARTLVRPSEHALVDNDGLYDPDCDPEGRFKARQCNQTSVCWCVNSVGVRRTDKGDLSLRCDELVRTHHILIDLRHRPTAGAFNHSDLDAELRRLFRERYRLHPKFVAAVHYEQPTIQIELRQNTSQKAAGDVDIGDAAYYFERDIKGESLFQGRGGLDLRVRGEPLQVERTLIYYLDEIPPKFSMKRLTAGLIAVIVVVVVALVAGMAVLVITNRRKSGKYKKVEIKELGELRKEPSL

[3] = target: T2, 人TROP2-his (CAT#10428-H08H-100, Sino biological) (human, UniProt P09758 27-274); test: SPR (Biacore), antibody captured by human Fab capture on CM5, human TROP2-his flowed
T2 construct: Bought; also called 人TROP2-his抗原; not shown: His tag
T2 sequence (looked up): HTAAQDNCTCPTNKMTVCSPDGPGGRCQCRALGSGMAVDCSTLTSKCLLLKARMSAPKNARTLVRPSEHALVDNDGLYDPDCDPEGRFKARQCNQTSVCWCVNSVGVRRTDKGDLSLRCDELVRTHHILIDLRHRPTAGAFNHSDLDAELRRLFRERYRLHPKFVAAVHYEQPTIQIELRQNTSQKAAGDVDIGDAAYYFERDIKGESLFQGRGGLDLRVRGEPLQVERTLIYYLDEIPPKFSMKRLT

[4] = target: T1, 人源TROP2, full length, on transfected …; test: FACS on CHOK1-hTROP2 cells
[5] = target: T3, 食蟹猴TROP2, full length, on CHOK1 cells (CHOK1-cTROP2 2B2C2) (cynomolgus monkey, UniProt P09758 27-323 (human entry)); test: FACS on CHOK1-cTROP2 cells
T3 chain: T1 sequence with M36V, S67N, I204V, M266V, T272S

[6] = target: T4, 人源TROP2-hFc蛋白 (免疫原A; human TROP2 Thr88-Thr274 with human IgG Fc tag) (human, UniProt P09758 88-274); test: ELISA, hTROP2-hFc coated at 1.0 μg/mL
T4 construct: also called hTROP2-hFc; 人TROP2-hFc蛋白; not shown: human IgG Fc fragment (hFc) of the pCpC vector
T4 sequence: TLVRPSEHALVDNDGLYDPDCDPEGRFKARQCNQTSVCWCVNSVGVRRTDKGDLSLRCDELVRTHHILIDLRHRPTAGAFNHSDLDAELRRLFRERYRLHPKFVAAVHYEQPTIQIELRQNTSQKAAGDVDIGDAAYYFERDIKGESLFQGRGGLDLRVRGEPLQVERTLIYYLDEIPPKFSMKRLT

[7] = target: T1, 人源TROP2, full length, on transfected …; test: FACS on CHOK1-TROP2 cells

decrease of maximal MFI against wild-type chimeric 11E8 [1]: 53%
B1: 嵌合抗体11E8-3 (heavy chain CDR2 DG→EG) (antibody, human IgG1, V domains shown)
VH: QVQLQQSGAELVRPGSSVKISCKASGVAFSTYWMNWVRQRPGQGLEWIGQIYPGEGDTNSNGKFKGKATLTADKSSSTAYMQFSSLTSEDSAVYFCATRIPDHYGSDWGYFDVWGAGTTV
VL: DIVLTQSPASLAVSLGQRATISCRASKSVSTSGYSYMHWYQQKPGQPPKLLIYLASNLESGVPARFSGSGSGTDFTLNIHPVEEEDAATYYCQHSRELPPTFGGGTKLEIK

Kd [3]: 10.3 nM
koff [3]: 0.00107 s⁻¹
kon [3]: 105000 M⁻¹ s⁻¹
B3: 嵌合抗体11E8(DA,NA) (antibody, V domains shown)
VH: B1 VH with E55D, G56A, G62A
VL: B1 VL

decrease of maximal MFI against wild-type chimeric 11E8 [1]: 23%
B5: 嵌合抗体11E8-2 (heavy chain CDR2 DG→SG) (antibody, human IgG1, V domains shown)
VH: B1 VH with E55S
VL: B1 VL

Kd [3]: 1.21 nM
koff [3]: 0.000271 s⁻¹
kon [3]: 225000 M⁻¹ s⁻¹
B8: hRS7 (antibody, V domains shown)
VH: QVQLQQSGSELKKPGASVKVSCKASGYTFTNYGMNWVKQAPGQGLKWMGWINTYTGEPTYTDDFKGRFAFSLDTSVSTAYLQISSLKADDTAVYFCARGGFGSSYWYFDVWGQGSLVTVSS
VL: DIQLTQSPSSLSASVGDRVSITCKASQDVSIAVAWYQQKPGKAPKLLIYSASYRYTGVPDRFSGSGSGTDFTLTISSLQPEDFAVYYCQQHYITPLTFGAGTKVEIKR

Kd [3]: 20.7 nM
koff [3]: 0.00293 s⁻¹
kon [3]: 141000 M⁻¹ s⁻¹
B9: hTINA1-H1L1 (antibody, V domains shown)
VH: QVQLVQSGAEVKKPGASVKVSCKASGYTFTTAGMQWVRQAPGQGLEWMGWINTHSGVPKYAEDFKGRVTISADTSTSTAYLQLSSLKSEDTAVYYCARSGFGSSYWYFDVWGQGTLVTVSS
VL: B8 VL with L4M, S20T, I31T, D60S, A100Q, V104L

The remaining lines, values behind:

B2: 嵌合抗体11E8 (野生型) (antibody, V domains shown)
VH: B1 VH with E55D
VL: B1 VL
notes: also called 野生型抗体嵌合抗体11E8
binding result [2]: binds

B4: TROP2抗体 11E8E6D11 (antibody, V domains shown)
VH: B1 VH with E55D
VL: B1 VL
notes: Mouse hybridoma antibody
binding result [4]: binds
binding result [5]: binds
binding result [6]: binds

B6: 嵌合抗体11E8-1 (heavy chain CDR2 NG→NA) (antibody, human IgG1, V domains shown)
VH: B1 VH with E55D, G62A
VL: B1 VL
notes: Human IgG1/kappa chimera; also called 突变抗体嵌合抗体11E8-1
binding result [7]: binds

B7: 嵌合抗体11E8-4 (heavy chain CDR2 DG→DA) (antibody, human IgG1, V domains shown)
VH: B1 VH with E55D, G56A
VL: B1 VL
notes: Human IgG1/kappa chimera; also called 突变体嵌合抗体11E8-4
binding result [7]: binds
